Source: article PMC6627510 (2019)

Target: Stl_(SaPIbov1) protein (staphylococcal repressor) (Staphylococcus aureus)
Test: ITC

Binder	Kd
Escherichia coli dUTPase Q93R mutant (enzyme) not shown	97.2 nM
Escherichia coli dUTPase Q93H mutant (enzyme) not shown	60.8 nM
